Measured values reported in the DeepSol protein solubility set.

Assay: soluble on expression in E. coli; label from the status in PepcDB or PDB records

| Sequence | soluble on expression in E. coli |
| --- | --- |
| GPGSMDESNRVPTGEAPSDEPPLKVRRHEGGHGELRETSSGDTNPQGATLFIRCTSIHGRGELLNGFISEHREALGVAKWYNVAGDESDGRCVPTLRTDAPFECVYVRSSRKPYFLLEFNEKGDVAKKFVEKLVGLRNTLYKGSPVFVEVAKGGLTVATERLKLEKRDAARRSATAVPLSFSSDKPTGPTAFVPRAVRKR | soluble |
| GPGSMDTLTHLSHTLREAMSDIVPESHPEHPFNLIPELCRKFYDLGWATGTGGGISIKMGENYYIAPSGVQKERIKPNEIFVLNASQDVVEEPRTEKQLKISECTPLFFNAYRMRGAGACLHTHSANCVLISLLCDREFRISHIEMIKGIINNETKKALGFRDTLVIPIIENTDFERDLTASMAECMERYPESCAVLVRRHGMYVWSDTWQKAKGAVECIDYLMGLAIRMRTLGLEWEPKDVK | soluble |
| GPGSMDTRDRPLPRTPPLQTPRGSCHPPLLTVEEDVRRAGQVRQVRPTKELNCRHQTSLQLYREHRRCEAEGFKERRVILRVWVLHGQHAPGGHTRPHPTGAQDRDAQAPQLRRAVESRLSPTHYEAEGDGRLNRRHHTTTACSHQRPHILRHIRRGNKDVAP | not soluble |
| GPGSMEPKRSGNMACVERERERDYWRHLERLNNQRCRIDNTIPVSCAYVRPIGSMRRNPARAEQVNRDNQKLVEKMVHIMNTRGGVDTSEPWRDYNKAINSQRRRNQEQANIARENAKLLDRLERTQPTYRSEKFEADRRRNEEFAARASRYPYQPMDRTRY | soluble |
| GPGSMEQPKGINILITGTPGTGKTSMAEMIAAELDGFQHLEVGKLVKENHFYTEYDTELDTHIIEEKDEDRLLDFMEPIMVSRGNHVVDYHSSELFPERWFHMVVVLHTSTEVLFERLTKRQYSEAKRAENMEAEIQCICEEEARDAYEDDIVLVRENDTLEQMAATVEEIRERVEVLKVERGL | soluble |
| GPGSMETTTHVVNPGEEGAYSSITEAINAAVDGDTVLLKPGLYEELPKVFKDITVTAERDASLTESETIVTNGIVIGSNATLKGLQVRGRVDVRKGHAVIEECDIHHGCDGIRVGEAAKLTVRRSRIHHCESGGDGIYFSTGSMGEVEDCDIYECRVNGVHANNARVVIARNRVRDVLFGFYFRGQSSGSVERNSVEHVSKFGIYVTEGSDPVVQGNMVRECGMHCAFVSQGGKGIWVDNSFDGSMHVHSGCDAKLGSNHVVGRLDVDPPT | not soluble |
| GPGSMFNVVLVEPEIPPNTGNVIRLCANTGARLHLIEPLGFPLDDAKMRRAGLDYHEYAQMRVHRDWDAFVAAEAPDPARMFAFTTRGSGRFHDRAFEPGDWFVFGAETRGLAPALVDRFAPEQRVRLPMRPGNRSLNLSNTVAVVVFEAWRQAGFEGGA | soluble |
| GPGSMGCGDSKVRQGGPSRPPPPRGGPNSASTKVEGRANGPNEETSRVESKGSAPPEPEVNSTPVPTKPLGNGVDNSGAEKTNAPPTGSAPPAQNCSQQIELDDEGNALVLPKGEWVRTEGTPFYYSDAENLYFHPPSCQFYDPTNEMWYDPEQDEWYRDDDPAE | not soluble |
| GPGSMGIIKHVAVILDVSEASLEQHVLERVRQLDEDTVVRRLSEEKAGKLPDFIKLSEDIIEKNDLRKSGEGSVESIQRFVCFVTDNKTRQNGMVAYAMHCLQIPVLSLTKGQKAKGNDDAEHWVSTILYKDLDGSHTDPLAAVNEFFTFPDKVGELLAVEGRDSQLTLQYCRELRSYLQRAWSAEVKLVGPNGCDMSEEGLDGTKCGETDNVEEQVEVESGIHAPLVKELLGNSQLESTHQNDHLLHGAMYALNRHENLPIIRYRLQRGVNIILCRPMSSSLEKLFNKFSRMRGGAEDVRRSFIDAVKSLLQFEGRWLDMPRRRVVLIREGVAHSWSAWLGNEVIHPLVDWIPVDVKAGNIADHCASLEASVKKAVRRLSR | soluble |
| GPGSMKKNLLADRTARVFEEARESATRLAAVSDTVSRAAVPHGIRHLFYTADTQREQRQCLAKVFAATCPSLHPLRSGEGEAGDGESSDPTSAAAAAHQDYILLILPDCAKVEDFISHVLLPGQADALRILGSQDDARCTDYLVERLDHTVQVQQQQRRRAETRKFIQRTVRKAEALDGDVGYPSSAPQPSPLFRRLEREVNATAAPIHAAASESQAPAPTSLATSPAVCAADSLTASSSPLRPPRRCFITCNCNNVRGLDLPHLTHVVILAQPTTALEYAHWCGRVGRFGRPGVSVTLMARSATRHMHQFCDSLGIAFRVEKRHAEVDVNAERWLSGADAE | soluble |
| GPGSMKLERSSCFEVQGCISCLTQASNEDACLASTMMNGAHIFHMGDLQHAQCGARQAVTHVETFPHGNFGEGAVISSSFVSYDSCFATGSSSGDIVLVSRHSKNVVQHYSFQNKAAVLSLKEVPNEPSLLLACSPTDAQIIDLETSTARINLHIPKPCVVGGTALTQNTLVVAAYDGKAMLYDVRRGHEPVVILAVPDQIISITSSPDTGAVATGTVSGRVFVLRCLEGNVREEAFSTGKERAPIRSVAMRNGYIAAGDTSAKLTCLDLKEDPKPTRYWDLHSLLTNESGPPSSGAEKLSSVTVPDTESWSLPAVMLQQSDLWAALSSTKYGVSHILAIPI | not soluble |
| GPGSMLNTAFSTADGRRLPRDLTDQQKRDIEEAFRVLDVKGVSTITPNDLKVALRALGYEPDKDAVRKLVAEMDRGGVSSNLVLSEFEDVMRQRFFAEDKDDEVDLAFPLFTEGKSEFISLDDLKRVAAEVGEDIPEDVLQEIIRECDVLDRDGRISREEFNKMLKSDK | soluble |
| GPGSMLRAFASPILAKVPYATLFEYNHVLQKVFEAQPSKVALRCELPGMPEVQFTYGQLQRDVVALADAVVRRKEAVAQARGETSLGWLQPSKPAHVRSVFAQGERTPSCDYMKDTGFYTTSLLCGPGYTYAVSLLASWSLNQLVTPMPISQRYKDELMYVLEHSGSRSIVGNTKLLKEKLPAEYEELYVRAEADVDKIPRSASREPKQRNDSDVTSNTFFVDTVYDATLLVRDITAARDIQGTATLETEWLPPAESVCAPMRSAEDLVKRLDEEKATAKARELDRQAEILQQEHVRRNRAPMQATGGADPAGSDADGESLFCFDSAHLDELNRVYQRWYTMPSARPTKYDDCLMLYTSGTTAKPKGVVHTHASVANMVKVLQNAWQWRDTDSILHVLPWHHVHGLVNILLCAIASNARCVVTTFDDAARVAHRLEQGDITLFMAVPTVYVKLSDAVQRKFSPIEKTGFRRACMESVRLMVCGSAPLPVPTLNQFCELSGHTLLERYGMTEIGMALSQPLHPISDRHPGTVGSPLQTVKTYVHQPETAEAMEQASAKEAEYDEVGGLGIASESLFDRYWNNATATKKEVRTNAAGMRFFDTGDTVGVRLPAGKPAVYTILGRSSVDIIKSRGYKLSALEIEATLLARNDLFYEIAVVGAADAVQGESVVAIVAMQPEAARARGIAFGEGFAWHESAAVTEELKKAALQLLAPYKCPSRYIVVPEIPRNPTGKVNKKDLKKVLGLA | not soluble |
| GPGSMPSGVTHSLSLSSLPVVSLLPRWHKAEVVSHRQLTPTATSAQERAKRGKTSVLAAANTAAMTATESKGFAELYHQLLQDGVQLQKELEAYYLRQEGYIRKRVAVLDEMQENIADERRCLELQHQECRAQISTTRKQAASFLSDERKVSQAVRHAQPFLAAQEAEIDKRLDELQREKEREDTALLNVMARQEALGKQEALLACRERQRFLEEQDLQKALIEMRSLNREMEERRKSLLRKHGTVADWDRKLESRERELLVCQDQLRENLKALEQEENALGIHPAQRTAVAPAVSQRTVMDDHDMSIEHDSACEEIDYED | not soluble |
| GPGSMPSITTAKREYEERLVDCLTKYSCVLFVGMDNVRSQQVHDVRRALRGKAEFMMGKKTLQAKIVEKRAQAKDASAEAKHFNDQCEEYNLLSGNTGLIFTNNAVQEITSVLDAHRVKAPARVGAISPCDVIVPAGSTGMEPTQTSFFQALNIATKIAKGMVEIVTEKKVLSVGDKVDNSTATLLQKLNISPFYYQVNVLSVWDRGVLFTREDLMMTEDMVEKMLMDGLS | not soluble |
| GPGSMQSASSRVPRKPAAASNLGKPSSSGRFTKPNRPQPTSSFSKTAQPDMTGRYGTSTALVASTAASHFTAGARGQSTPFVGLADRTGQEGSVFGLRAPQNDATGAAAHTKTRQAARTKVVDDASTPVVVVGPERDSVPFRLCCEALAEGCVQTYMHLFELAHRDPVCVDTLSRKFFNVPDDRLAWVQQQLSAVEVLRRQSEFEQVFTHCEQLANYFEKEGDYAEAAWYHEMVLHYMMESLDRTLEQRARHVYATFQERQGHLEEAAALYDAMYRLAVALRDEATLQDASCCLVRVHQALGETLKFSDPAAAARHYATAAEAAVRSKNVVDEGSAYSALGDVSEARGDLPLALKYQRSCRAVAQQNDLKPQECRATLRVADLEERLGLKLEASTTLHEALQLAKELGAPRQLCIATMQLGEAYRSRNQEGEALQCFDESFAAAVEAGDQELIDTVRIAMGFARGDYYLTHAYGGKGYLHLVYTDIRAQLAWMSGGTL | not soluble |
| GPGSMSEELILQWAKRVSDAEEELHRMEEDINAVKQQRKLLKADIRKYEDVVASEKCDLLTSLERVEAQAKDLGAQCEATLTEKDRVEAEYMATLDAYENLHFLVREIKDAEEHLQSRDDLEACLQRESVTWAEEEHTLRRKLHELQQQQAQARRAQEAEVRELEAQLSNVEQRQRDERAGRCVEVAQAARRVVHSSRQPTPASPKPVTSAEEDAFVSANAGGAMPIRSAPLKSCLKTPVNGSTSGNAAPTAPRHTTAASAPVSRCASQSLVSDAAASGVQRQGVDGGDQPSLRLLQEMRAYSYGAPCKAGARKREFLGDATNNQ | soluble |
| GPGSMSQLWVKRAKAEMTRHSRVLETINRVFPMPFEERRSRVGMTSYATYRWLRYFPVILVPVVVMGTLLETRDNPQEHVFTSLHLWLADHGVFRHDTVKALNPAFEDERRSIEWKANDRKWRFTGTDMPSEREIREFAAINIDHQSRRQL | soluble |
| GPGSMSSSAPLSTQQPAPLPLQRQQQQQSTQSMLDAIRQQGWGSASSGGGDAMPSDASSRGMEGHSGAKLACPQMHEGHSAISSRPFNSEGADKPFAAVAATREASEAAKNSYDSMQPSADSQQLRGAEGECALPGHANAAAAAATLRNTNGVCEAIVTAARYGRSMEPSASVPAVTATAALVNVVAEEKERRRLSGPFGSYSTTDEVFHQKCNDVQRGSAIESADSRTDASGGALVVSPAYAAVPARVSEAPSPVDAEMQQLLADARRAYTAAEERLLSDGLALREDWMGTRDLFFAAGSLFAAVGEAADAARCLLHATFINRAFQNDSEAMVTLAMSVEQLKQSHPRIAVDSLLRLAPCYAQQDLRYQAARCHRDAAEILENILEAKEEAVVQYRAALDMYAETKVAAAETARRWERQQQQQRTAAIWGDLTGTPPLPPSAGASATNGDLTSPTAPGGVEATSLGSEQPFVSPKSTAPVPSSGGDSLTSSVNGQKPHSLEFPAHGPPQYRVSTTVQRSLADSCRWRLMILLTLLGRYDEAREAALDCAANVPRTLPKTKYLLYATLCVLARGASVKTDSTANSVSDPAAAAEAAQAPETPTTPFTAAAADTVYFDSLYDTEKFFLGLQDEDRTFQRGKENALVRALLAANRACSLTAFDEAVRAYKEYSTTEPCAAFELLAGECRRSLFEHMERFA | not soluble |
